± gives the uncertainty stated by the source.
B1: Death-inducer obliterator 1, residues 263 to 321; numbered along this chain, Q9BTC0 (parent)
chain: GYDPNALYCICRQPHNNRFMICCDRCEEWFHGDCVGISEARGRLLERNGEDYICPNCTI

Variants of: B1
Test: abundance fitness (aPCA) (normalised: wild type 0, dead -1); higher = more abundant; growth selection in yeast, the domain comes from the species named
Conditions: Homo sapiens
GYDPNALYCICRQPHNNRFMICCDRCEEWFHGDCVGFSEARGRLLERNGEDYICPNCTI gave an abundance fitness of -0.095 ± 0.097. GYDPNALYCICRQPHNNRFMICCDRCEEWFHGDCVGGSEARGRLLERNGEDYICPNCTI gave an abundance fitness of -0.122 ± 0.053. In the case of GYDPNALYCICRQPHNNRFMICCDRCEEWFHGDCVGHSEARGRLLERNGEDYICPNCTI, the abundance fitness is reported as -0.076 ± 0.14. In the case of GYDPNALYCICRQPHNNRFMICCDRCEEWFHGDCVGKSEARGRLLERNGEDYICPNCTI, the abundance fitness is reported as 0.168 ± 0.097. GYDPNALYCICRQPHNNRFMICCDRCEEWFHGDCVGLSEARGRLLERNGEDYICPNCTI showed an abundance fitness of -0.054 ± 0.062. Variant GYDPNALYCICRQPHNNRFMICCDRCEEWFHGDCVGMSEARGRLLERNGEDYICPNCTI has an abundance fitness of -0.208 ± 0.11. In the case of GYDPNALYCICRQPHNNRFMICCDRCEEWFHGDCVGPSEARGRLLERNGEDYICPNCTI, the abundance fitness is reported as -0.253 ± 0.088. GYDPNALYCICRQPHNNRFMICCDRCEEWFHGDCVGQSEARGRLLERNGEDYICPNCTI showed an abundance fitness of 0.091 ± 0.066. GYDPNALYCICRQPHNNRFMICCDRCEEWFHGDCVGRSEARGRLLERNGEDYICPNCTI showed an abundance fitness of -0.017 ± 0.057. Work on GYDPNALYCICRQPHNNRFMICCDRCEEWFHGDCVGSSEARGRLLERNGEDYICPNCTI yielded an abundance fitness of -0.133 ± 0.072. With GYDPNALYCICRQPHNNRFMICCDRCEEWFHGDCVGTSEARGRLLERNGEDYICPNCTI the abundance fitness was 0.062 ± 0.09. GYDPNALYCICRQPHNNRFMICCDRCEEWFHGDCVGVSEARGRLLERNGEDYICPNCTI showed an abundance fitness of -0.12 ± 0.072. Variant GYDPNALYCICRQPHNNRFMICCDRCEEWFHGDCVGWSEARGRLLERNGEDYICPNCTI has an abundance fitness of 0.061 ± 0.049. GYDPNALYCICRQPHNNRFMICCDRCEEWFHGDCVGYSEARGRLLERNGEDYICPNCTI gave an abundance fitness of 0.094 ± 0.086. Variant GYDPNALYCICRQPHNNRFMICCDRCEEWFHGDCVGIAEARGRLLERNGEDYICPNCTI has an abundance fitness of -0.053 ± 0.13. GYDPNALYCICRQPHNNRFMICCDRCEEWFHGDCVGICEARGRLLERNGEDYICPNCTI showed an abundance fitness of -0.166 ± 0.16. Work on GYDPNALYCICRQPHNNRFMICCDRCEEWFHGDCVGIDEARGRLLERNGEDYICPNCTI yielded an abundance fitness of 0.197 ± 0.081. Variant GYDPNALYCICRQPHNNRFMICCDRCEEWFHGDCVGIEEARGRLLERNGEDYICPNCTI has an abundance fitness of -0.146 ± 0.13. For GYDPNALYCICRQPHNNRFMICCDRCEEWFHGDCVGIFEARGRLLERNGEDYICPNCTI, the abundance fitness was -0.238 ± 0.13. GYDPNALYCICRQPHNNRFMICCDRCEEWFHGDCVGIGEARGRLLERNGEDYICPNCTI gave an abundance fitness of 0.03 ± 0.1. With GYDPNALYCICRQPHNNRFMICCDRCEEWFHGDCVGIHEARGRLLERNGEDYICPNCTI the abundance fitness was -0.033 ± 0.15. GYDPNALYCICRQPHNNRFMICCDRCEEWFHGDCVGIIEARGRLLERNGEDYICPNCTI gave an abundance fitness of 0.155 ± 0.13. GYDPNALYCICRQPHNNRFMICCDRCEEWFHGDCVGIKEARGRLLERNGEDYICPNCTI gave an abundance fitness of -0.17 ± 0.11. GYDPNALYCICRQPHNNRFMICCDRCEEWFHGDCVGILEARGRLLERNGEDYICPNCTI showed an abundance fitness of -0.076 ± 0.059. With GYDPNALYCICRQPHNNRFMICCDRCEEWFHGDCVGIMEARGRLLERNGEDYICPNCTI the abundance fitness was 0.118 ± 0.12. Variant GYDPNALYCICRQPHNNRFMICCDRCEEWFHGDCVGINEARGRLLERNGEDYICPNCTI has an abundance fitness of -0.245 ± 0.34. Work on GYDPNALYCICRQPHNNRFMICCDRCEEWFHGDCVGIPEARGRLLERNGEDYICPNCTI yielded an abundance fitness of 0.001 ± 0.065. GYDPNALYCICRQPHNNRFMICCDRCEEWFHGDCVGIQEARGRLLERNGEDYICPNCTI gave an abundance fitness of -0.251 ± 0.13. In the case of GYDPNALYCICRQPHNNRFMICCDRCEEWFHGDCVGIREARGRLLERNGEDYICPNCTI, the abundance fitness is reported as -0.13 ± 0.056. With GYDPNALYCICRQPHNNRFMICCDRCEEWFHGDCVGITEARGRLLERNGEDYICPNCTI the abundance fitness was 0.027 ± 0.071. GYDPNALYCICRQPHNNRFMICCDRCEEWFHGDCVGIVEARGRLLERNGEDYICPNCTI gave an abundance fitness of 0.071 ± 0.067. Work on GYDPNALYCICRQPHNNRFMICCDRCEEWFHGDCVGIWEARGRLLERNGEDYICPNCTI yielded an abundance fitness of -0.109 ± 0.2. Work on GYDPNALYCICRQPHNNRFMICCDRCEEWFHGDCVGIYEARGRLLERNGEDYICPNCTI yielded an abundance fitness of -0.193 ± 0.1. Variant GYDPNALYCICRQPHNNRFMICCDRCEEWFHGDCVGISAARGRLLERNGEDYICPNCTI has an abundance fitness of -0.262 ± 0.066. GYDPNALYCICRQPHNNRFMICCDRCEEWFHGDCVGISDARGRLLERNGEDYICPNCTI showed an abundance fitness of -0.144 ± 0.084. In the case of GYDPNALYCICRQPHNNRFMICCDRCEEWFHGDCVGISFARGRLLERNGEDYICPNCTI, the abundance fitness is reported as -0.043 ± 0.081. In the case of GYDPNALYCICRQPHNNRFMICCDRCEEWFHGDCVGISGARGRLLERNGEDYICPNCTI, the abundance fitness is reported as -0.217 ± 0.049. GYDPNALYCICRQPHNNRFMICCDRCEEWFHGDCVGISHARGRLLERNGEDYICPNCTI showed an abundance fitness of -0.277 ± 0.22. Variant GYDPNALYCICRQPHNNRFMICCDRCEEWFHGDCVGISIARGRLLERNGEDYICPNCTI has an abundance fitness of -0.226 ± 0.13. GYDPNALYCICRQPHNNRFMICCDRCEEWFHGDCVGISLARGRLLERNGEDYICPNCTI gave an abundance fitness of -0.055 ± 0.062. Work on GYDPNALYCICRQPHNNRFMICCDRCEEWFHGDCVGISMARGRLLERNGEDYICPNCTI yielded an abundance fitness of -0.21 ± 0.11. In the case of GYDPNALYCICRQPHNNRFMICCDRCEEWFHGDCVGISNARGRLLERNGEDYICPNCTI, the abundance fitness is reported as -0.017 ± 0.073. For GYDPNALYCICRQPHNNRFMICCDRCEEWFHGDCVGISPARGRLLERNGEDYICPNCTI, the abundance fitness was -0.257 ± 0.086. With GYDPNALYCICRQPHNNRFMICCDRCEEWFHGDCVGISQARGRLLERNGEDYICPNCTI the abundance fitness was -0.048 ± 0.11. In the case of GYDPNALYCICRQPHNNRFMICCDRCEEWFHGDCVGISRARGRLLERNGEDYICPNCTI, the abundance fitness is reported as -0.037 ± 0.074.

Source: the Human Domainome abundance scans (Beltran et al. 2025)
